Data from patent US20140213513A1 (Sanofi, priority 2012, published 2014).
*1 amine or outer side, *2 acyl side, *3 side chain or, on linkers, in order; H or OH if unused. Where no end group is shown, it is not given here. Side-chain parts run from the residue outwards. [ ]: non-standard residue; d: D form. The star is where a group is joined. γGlu = O=C(O)[C@H](CCC(=O)[*:2])N[*:1]; Stearoyl = CCCCCCCCCCCCCCCCCC(=O)*; Palmitoyl = CCCCCCCCCCCCCCCC(=O)*; Aib = CC(C)(N)C(=O)O

Experiments:
Assay in all cases: cell-based or functional assay
human GLP-1 receptor = human GLP-1 receptor (human, UniProt P43220 24-463)
human GIP receptor = biological target: T1, human GIP receptor (human, UniProt P48546 22-466)
T1 sequence (looked up): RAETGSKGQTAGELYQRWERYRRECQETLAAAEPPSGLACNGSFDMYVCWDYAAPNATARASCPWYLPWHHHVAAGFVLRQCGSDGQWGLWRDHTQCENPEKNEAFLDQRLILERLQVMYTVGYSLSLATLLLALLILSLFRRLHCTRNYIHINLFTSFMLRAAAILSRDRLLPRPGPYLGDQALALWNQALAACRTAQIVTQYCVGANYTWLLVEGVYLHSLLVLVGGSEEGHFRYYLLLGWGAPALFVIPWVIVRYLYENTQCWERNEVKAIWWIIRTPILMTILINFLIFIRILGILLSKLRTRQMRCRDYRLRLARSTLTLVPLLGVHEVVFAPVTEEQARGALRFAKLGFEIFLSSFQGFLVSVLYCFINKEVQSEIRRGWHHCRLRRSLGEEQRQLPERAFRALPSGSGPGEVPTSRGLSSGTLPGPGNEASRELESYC

human glucagon receptor = human glucagon receptor (human, UniProt P47871 26-477)
Chain of human glucagon receptor (P47871 26-477): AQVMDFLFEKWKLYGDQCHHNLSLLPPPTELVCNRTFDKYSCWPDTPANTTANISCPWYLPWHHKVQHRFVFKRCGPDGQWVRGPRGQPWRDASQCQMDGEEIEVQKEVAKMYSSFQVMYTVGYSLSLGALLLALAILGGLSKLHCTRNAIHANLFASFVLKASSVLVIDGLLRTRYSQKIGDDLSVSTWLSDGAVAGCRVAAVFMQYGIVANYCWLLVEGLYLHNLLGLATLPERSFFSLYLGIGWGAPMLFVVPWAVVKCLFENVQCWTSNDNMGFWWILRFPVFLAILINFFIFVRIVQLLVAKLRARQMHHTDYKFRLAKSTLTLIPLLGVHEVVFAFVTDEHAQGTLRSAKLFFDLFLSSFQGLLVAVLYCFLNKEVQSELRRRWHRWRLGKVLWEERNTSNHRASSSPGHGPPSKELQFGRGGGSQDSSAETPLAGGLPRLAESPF

B1: exendin-4 peptide analogue SEQ ID NO: 16 (peptide)
peptide: Y[Aib]EGTFTSDLSIQK([γGlu-Stearoyl])ESKAA[Aib]EFIEWLKAGGPSSGAPPPSK-NH2
modifications: N-terminus assumed
SMILES: CCCCCCCCCCCCCCCCCC(=O)N[C@@H](CCC(=O)NCCCC[C@H](NC(=O)[C@H](CCC(N)=O)NC(=O)[C@@H](NC(=O)[C@H](CO)NC(=O)[C@H](CC(C)C)NC(=O)[C@H](CC(=O)O)NC(=O)[C@H](CO)NC(=O)[C@@H](NC(=O)[C@H](Cc1ccccc1)NC(=O)[C@@H](NC(=O)CNC(=O)[C@H](CCC(=O)O)NC(=O)C(C)(C)NC(=O)[C@@H](N)Cc1ccc(O)cc1)[C@@H](C)O)[C@@H](C)O)[C@@H](C)CC)C(=O)N[C@@H](CCC(=O)O)C(=O)N[C@@H](CO)C(=O)N[C@@H](CCCCN)C(=O)N[C@@H](C)C(=O)N[C@@H](C)C(=O)NC(C)(C)C(=O)N[C@@H](CCC(=O)O)C(=O)N[C@@H](Cc1ccccc1)C(=O)N[C@H](C(=O)N[C@@H](CCC(=O)O)C(=O)N[C@@H](Cc1c[nH]c2ccccc12)C(=O)N[C@@H](CC(C)C)C(=O)N[C@@H](CCCCN)C(=O)N[C@@H](C)C(=O)NCC(=O)NCC(=O)N1CCC[C@H]1C(=O)N[C@@H](CO)C(=O)N[C@@H](CO)C(=O)NCC(=O)N[C@@H](C)C(=O)N1CCC[C@H]1C(=O)N1CCC[C@H]1C(=O)N1CCC[C@H]1C(=O)N[C@@H](CO)C(=O)N[C@@H](CCCCN)C(N)=O)[C@@H](C)CC)C(=O)O
Human GLP-1 receptor
  EC50 hGLP-1 R: 0.007 nM
Human GIP receptor
  EC50 hGIP R: 0.0156 nM
Human glucagon receptor
  EC50 hGLUC R: 17 nM

B2: exendin-4 peptide analogue SEQ ID NO: 21 (peptide)
peptide: Y[Aib]QGTFTSDLSIQK(Palmitoyl)EQRAA[Aib]EFIEWLKNTGPSSGAPPPS-NH2
modifications: N-terminus assumed
SMILES: CCCCCCCCCCCCCCCC(=O)NCCCC[C@H](NC(=O)[C@H](CCC(N)=O)NC(=O)[C@@H](NC(=O)[C@H](CO)NC(=O)[C@H](CC(C)C)NC(=O)[C@H](CC(=O)O)NC(=O)[C@H](CO)NC(=O)[C@@H](NC(=O)[C@H](Cc1ccccc1)NC(=O)[C@@H](NC(=O)CNC(=O)[C@H](CCC(N)=O)NC(=O)C(C)(C)NC(=O)[C@@H](N)Cc1ccc(O)cc1)[C@@H](C)O)[C@@H](C)O)[C@@H](C)CC)C(=O)N[C@@H](CCC(=O)O)C(=O)N[C@@H](CCC(N)=O)C(=O)N[C@@H](CCCNC(=N)N)C(=O)N[C@@H](C)C(=O)N[C@@H](C)C(=O)NC(C)(C)C(=O)N[C@@H](CCC(=O)O)C(=O)N[C@@H](Cc1ccccc1)C(=O)N[C@H](C(=O)N[C@@H](CCC(=O)O)C(=O)N[C@@H](Cc1c[nH]c2ccccc12)C(=O)N[C@@H](CC(C)C)C(=O)N[C@@H](CCCCN)C(=O)N[C@@H](CC(N)=O)C(=O)N[C@H](C(=O)NCC(=O)N1CCC[C@H]1C(=O)N[C@@H](CO)C(=O)N[C@@H](CO)C(=O)NCC(=O)N[C@@H](C)C(=O)N1CCC[C@H]1C(=O)N1CCC[C@H]1C(=O)N1CCC[C@H]1C(=O)N[C@@H](CO)C(N)=O)[C@@H](C)O)[C@@H](C)CC
Human GLP-1 receptor
  EC50 hGLP-1 R: 0.037 nM
Human GIP receptor
  EC50 hGIP R: 0.189 nM
Human glucagon receptor
  EC50 hGLUC R: 0.674 nM

B3: exendin-4 peptide analogue SEQ ID NO: 19 (peptide)
peptide: Y[Aib]QGTFTSDLSIQK([γGlu-Palmitoyl])EKRLA[Aib]EFIEWLKNTGPSSGAPPPS-NH2
modifications: N-terminus assumed
SMILES: CCCCCCCCCCCCCCCC(=O)N[C@@H](CCC(=O)NCCCC[C@H](NC(=O)[C@H](CCC(N)=O)NC(=O)[C@@H](NC(=O)[C@H](CO)NC(=O)[C@H](CC(C)C)NC(=O)[C@H](CC(=O)O)NC(=O)[C@H](CO)NC(=O)[C@@H](NC(=O)[C@H](Cc1ccccc1)NC(=O)[C@@H](NC(=O)CNC(=O)[C@H](CCC(N)=O)NC(=O)C(C)(C)NC(=O)[C@@H](N)Cc1ccc(O)cc1)[C@@H](C)O)[C@@H](C)O)[C@@H](C)CC)C(=O)N[C@@H](CCC(=O)O)C(=O)N[C@@H](CCCCN)C(=O)N[C@@H](CCCNC(=N)N)C(=O)N[C@@H](CC(C)C)C(=O)N[C@@H](C)C(=O)NC(C)(C)C(=O)N[C@@H](CCC(=O)O)C(=O)N[C@@H](Cc1ccccc1)C(=O)N[C@H](C(=O)N[C@@H](CCC(=O)O)C(=O)N[C@@H](Cc1c[nH]c2ccccc12)C(=O)N[C@@H](CC(C)C)C(=O)N[C@@H](CCCCN)C(=O)N[C@@H](CC(N)=O)C(=O)N[C@H](C(=O)NCC(=O)N1CCC[C@H]1C(=O)N[C@@H](CO)C(=O)N[C@@H](CO)C(=O)NCC(=O)N[C@@H](C)C(=O)N1CCC[C@H]1C(=O)N1CCC[C@H]1C(=O)N1CCC[C@H]1C(=O)N[C@@H](CO)C(N)=O)[C@@H](C)O)[C@@H](C)CC)C(=O)O
Human GLP-1 receptor
  EC50 hGLP-1 R: 0.0085 nM
Human GIP receptor
  EC50 hGIP R: 0.0915 nM
Human glucagon receptor
  EC50 hGLUC R: 0.137 nM

B4: exendin-4 peptide analogue SEQ ID NO: 18 (peptide)
peptide: Y[Aib]HGTFTSDLSIQK([γGlu-Stearoyl])EKRAA[Aib]EFIEWLKNTGPSSGAPPPS-NH2
modifications: N-terminus assumed
SMILES: CCCCCCCCCCCCCCCCCC(=O)N[C@@H](CCC(=O)NCCCC[C@H](NC(=O)[C@H](CCC(N)=O)NC(=O)[C@@H](NC(=O)[C@H](CO)NC(=O)[C@H](CC(C)C)NC(=O)[C@H](CC(=O)O)NC(=O)[C@H](CO)NC(=O)[C@@H](NC(=O)[C@H](Cc1ccccc1)NC(=O)[C@@H](NC(=O)CNC(=O)[C@H](Cc1c[nH]cn1)NC(=O)C(C)(C)NC(=O)[C@@H](N)Cc1ccc(O)cc1)[C@@H](C)O)[C@@H](C)O)[C@@H](C)CC)C(=O)N[C@@H](CCC(=O)O)C(=O)N[C@@H](CCCCN)C(=O)N[C@@H](CCCNC(=N)N)C(=O)N[C@@H](C)C(=O)N[C@@H](C)C(=O)NC(C)(C)C(=O)N[C@@H](CCC(=O)O)C(=O)N[C@@H](Cc1ccccc1)C(=O)N[C@H](C(=O)N[C@@H](CCC(=O)O)C(=O)N[C@@H](Cc1c[nH]c2ccccc12)C(=O)N[C@@H](CC(C)C)C(=O)N[C@@H](CCCCN)C(=O)N[C@@H](CC(N)=O)C(=O)N[C@H](C(=O)NCC(=O)N1CCC[C@H]1C(=O)N[C@@H](CO)C(=O)N[C@@H](CO)C(=O)NCC(=O)N[C@@H](C)C(=O)N1CCC[C@H]1C(=O)N1CCC[C@H]1C(=O)N1CCC[C@H]1C(=O)N[C@@H](CO)C(N)=O)[C@@H](C)O)[C@@H](C)CC)C(=O)O
Human GLP-1 receptor
  EC50 hGLP-1 R: 0.0183 nM
Human GIP receptor
  EC50 hGIP R: 0.0095 nM
Human glucagon receptor
  EC50 hGLUC R: 0.0095 nM

B5: exendin-4 peptide analogue SEQ ID NO: 17 (peptide)
peptide: Y[Aib]EGTFTSDLSKQK([γGlu-Palmitoyl])EKEAA[Aib]EFIEWLKAGGPSSGAPPPS-NH2
modifications: N-terminus assumed
SMILES: CCCCCCCCCCCCCCCC(=O)N[C@@H](CCC(=O)NCCCC[C@H](NC(=O)[C@H](CCC(N)=O)NC(=O)[C@H](CCCCN)NC(=O)[C@H](CO)NC(=O)[C@H](CC(C)C)NC(=O)[C@H](CC(=O)O)NC(=O)[C@H](CO)NC(=O)[C@@H](NC(=O)[C@H](Cc1ccccc1)NC(=O)[C@@H](NC(=O)CNC(=O)[C@H](CCC(=O)O)NC(=O)C(C)(C)NC(=O)[C@@H](N)Cc1ccc(O)cc1)[C@@H](C)O)[C@@H](C)O)C(=O)N[C@@H](CCC(=O)O)C(=O)N[C@@H](CCCCN)C(=O)N[C@@H](CCC(=O)O)C(=O)N[C@@H](C)C(=O)N[C@@H](C)C(=O)NC(C)(C)C(=O)N[C@@H](CCC(=O)O)C(=O)N[C@@H](Cc1ccccc1)C(=O)N[C@H](C(=O)N[C@@H](CCC(=O)O)C(=O)N[C@@H](Cc1c[nH]c2ccccc12)C(=O)N[C@@H](CC(C)C)C(=O)N[C@@H](CCCCN)C(=O)N[C@@H](C)C(=O)NCC(=O)NCC(=O)N1CCC[C@H]1C(=O)N[C@@H](CO)C(=O)N[C@@H](CO)C(=O)NCC(=O)N[C@@H](C)C(=O)N1CCC[C@H]1C(=O)N1CCC[C@H]1C(=O)N1CCC[C@H]1C(=O)N[C@@H](CO)C(N)=O)[C@@H](C)CC)C(=O)O
Human GLP-1 receptor
  EC50 hGLP-1 R: 0.0052 nM
Human GIP receptor
  EC50 hGIP R: 0.0083 nM
Human glucagon receptor
  EC50 hGLUC R: 21 nM

B6: exendin-4 peptide analogue SEQ ID NO: 20 (peptide)
peptide: Y[Aib]EGTFTSDLSIQK([γGlu-Palmitoyl])EKRAA[Aib]EFIEWLKRAGPSSGAPPPS-NH2
modifications: N-terminus assumed
SMILES: CCCCCCCCCCCCCCCC(=O)N[C@@H](CCC(=O)NCCCC[C@H](NC(=O)[C@H](CCC(N)=O)NC(=O)[C@@H](NC(=O)[C@H](CO)NC(=O)[C@H](CC(C)C)NC(=O)[C@H](CC(=O)O)NC(=O)[C@H](CO)NC(=O)[C@@H](NC(=O)[C@H](Cc1ccccc1)NC(=O)[C@@H](NC(=O)CNC(=O)[C@H](CCC(=O)O)NC(=O)C(C)(C)NC(=O)[C@@H](N)Cc1ccc(O)cc1)[C@@H](C)O)[C@@H](C)O)[C@@H](C)CC)C(=O)N[C@@H](CCC(=O)O)C(=O)N[C@@H](CCCCN)C(=O)N[C@@H](CCCNC(=N)N)C(=O)N[C@@H](C)C(=O)N[C@@H](C)C(=O)NC(C)(C)C(=O)N[C@@H](CCC(=O)O)C(=O)N[C@@H](Cc1ccccc1)C(=O)N[C@H](C(=O)N[C@@H](CCC(=O)O)C(=O)N[C@@H](Cc1c[nH]c2ccccc12)C(=O)N[C@@H](CC(C)C)C(=O)N[C@@H](CCCCN)C(=O)N[C@@H](CCCNC(=N)N)C(=O)N[C@@H](C)C(=O)NCC(=O)N1CCC[C@H]1C(=O)N[C@@H](CO)C(=O)N[C@@H](CO)C(=O)NCC(=O)N[C@@H](C)C(=O)N1CCC[C@H]1C(=O)N1CCC[C@H]1C(=O)N1CCC[C@H]1C(=O)N[C@@H](CO)C(N)=O)[C@@H](C)CC)C(=O)O
Human GLP-1 receptor
  EC50 hGLP-1 R: 0.0082 nM
Human GIP receptor
  EC50 hGIP R: 0.0163 nM
Human glucagon receptor
  EC50 hGLUC R: 18.2 nM
